We go through two molecules from article doi:10.1101/2021.07.08.451529 (bioRxiv, 2021).

One may read the stoichiometry N as a count of units in the complex or per binding partner.

The target in series [1] is recombinant C. elegans mitochondrial malate dehydrogenase MDH-2 (F20H11.3), mitochondrial import sequence removed (C. elegans). Kind of series: SEC. (In general: Size exclusion chromatography separates by hydrodynamic size, large species first.)
The series “SEC” deals with the molecule itself. Kind of series: SEC.

Consider “recombinant C. elegans mitochondrial malate dehydrogenase MDH-2 (F20H11.3), mitochondrial import sequence removed (enzyme)”, for which the stoichiometry N in series [1] turned out to be 2.

B1: recombinant C. elegans cytoplasmic malate dehydrogenase MDH-1 (F46E10.10) (enzyme)
chain: MSAPLRVLVTGAAGQIGYSIVIRIADGTVFGKEQPVELVLLDVPQCSNILEGVVFELQDCALPTLFSVVAVTDEKSAFTGIDYAFLVGAMPRREGMERKDLLAANVKIFKSQGKALAEYAKPTTKVIVVGNPANTNAFIAAKYAAGKIPAKNFSAMTRLDHNRALAQLALKTGTTIGNVKNVIIWGNHSGTQFPDVTHATVNKNGTETDAYAAVGDNAFLQGPFIATVQKRGGVIIEKRKLSSAMSAAKAACDHIHDWHFGTKAGQFVSMAVPSDGSYGIPQGLIFSFPVTIEGGEWKIVQGLSFDDFAKGKIAATTKELEEERDDALKACDDANIA
On to B1, for which, in the series “SEC”, the “stoichiometry N” value came out at 2.
